For one substance, stoichiometry N results are on record in publication PMC7614494.

The target in assay [1] is Mouse saposin A (mouse). Nature of the assay: crystal structure; SapA-PC preparation (100 mM citrate pH 4.0, 150 mM NaCl) mixed with acid ceramidase; sitting drops at 293 K, 23.25% PEG 3350, 0.1 M Bis-Tris pH 5.6; only SapA found in the crystal; 3.17 Å.
The target of assay [2] is Mouse saposin A (mouse). Nature of the assay: SEC-MALS; SapA after incubation with DDM-solubilised phosphatidylcholine (PC:SapA 30:1); Superdex 200 Increase 10/300 GL, 100 mM citrate pH 4.0, 150 mM NaCl, room temperature; protein conjugate analysis of three regions of a heterogeneous peak.

Regarding Mouse saposin A (natural protein), the stoichiometry N is 4 in the assay with Mouse saposin A (mouse) [1] and 3 to 4 with Mouse saposin A (mouse) [2].
